Data reported in PMC8748927.

Target: Mycobacterium tuberculosis cell wall sulfoglycolipid peptide on CD1b (human)
Assay: IFN-γ ELISPOT. CD4 clone of primary T cells transduced with the A05 TCR, with K562-CD1b. SGL was titrated from 1 µg/ml to 10^-7 µg/ml. This EC50 is stated to be 100-fold lower than that of an A05-CD8 T cell clone.; full-length, on cells
Conditions: chains alpha TRAV13-2 TRAJ52 CDR3:beta TRBV20-1 TRBJ1-2 CDR3

B1: A05 TCR (peptide)
chain 1: CAEVLGGTSYGKLTF
chain 2: CSASGRRGYGYTF
EC50 of peptide: 0.6 ng/mL
